This passage reports Kd, koff and kon results from patent publication US20240343814A1.

Assay [1] addresses Recombinant human his-tagged IGF 1R extracellular domain protein (human) (UniProt P08069). Description: SPR, captured IgG, IGF-1R ECD-his analyte, dissociation pH 6. A general note: In SPR one partner is held on a chip, and binding of the other changes the refractive index at the surface.
Assay [2] shares this target. Description: SPR, captured IgG, IGF-1R ECD-his analyte, dissociation pH 7.4.

B1: VRDN-02530 (antibody, V domains shown)
VH: EVQLVQSGGGLVKPGGSLRLSCAASGFTFSSFAMHWVRQAPGKGLEWISVIDTRGATYYADSVKGRFTISRDNAKNSLYLQMNSLRAEDTAVYYCARLGNFYYGMDVWGQGTTVTVSS
VL: EIVLTQSPGTLSVSPGERATLSCRAHQSIGSSLHWYQQKPGQAPRLLIKYASQSLSGIPDRFSGSGSGTDFTLTISRLEPEDFAVYYCHQSSRLPHTFGQGTKVEIK
Turning to B1, in assay [1], the Kd (as a rule, the concentration at which binding is half-saturated) came to 0.029 nM; the koff – broadly, the rate constant with which the complex falls apart – stood at 1e-06 s⁻¹; the kon (in general, the second-order rate constant of association) is 34500 M⁻¹ s⁻¹. Further, in assay [2], the Kd came to 0.102 nM, the koff was 1.53e-05 s⁻¹ and the kon was found to be 150000 M⁻¹ s⁻¹.

B2: VRDN-02539 (antibody, V domains shown)
VH: EVQLVQSGGGLVKPGGSLRLSCAASGFTFSSFAMHWVRQAPGKGLEWISVIDTRGATYYADSVKGRFTISRDNAKNSLYLQMNSLRAEDTAVYYCARLGNFYYGMDVWGQGTTVTVSS
VL: EIVLTQSPGTLSVSPGERATLSCRASQSIGSSLHWYQQKPGQAPRLLIKHASQSLSGIPDRFSGSGSGTDFTLTISRLEPEDFAVYYCHQSSRLPHTFGQGTKVEIK
For B2, in assay [1], the Kd is 21.6 nM, the koff is 0.000584 s⁻¹ and the kon is 27000 M⁻¹ s⁻¹. In addition, in assay [2], the Kd worked out at 0.00588 nM, the koff is 1e-06 s⁻¹ and the kon was 170000 M⁻¹ s⁻¹.

B3: VRDN-02536 (antibody, V domains shown)
VH: EVQLVQSGGGLVKPGGSLRLSCAASGFTFSSFAMHWVRQAPGKGLEWISVIDTRGATYYADSVKGRFTISRDNAKNSLYLQMNSLRAEDTAVYYCARLGNFYYGMDVWGQGTTVTVSS
VL: EIVLTQSPGTLSVSPGERATLSCRASQSIGSHLHWYQQKPGQAPRLLIKYASQSLSGIPDRFSGSGSGTDFTLTISRLEPEDFAVYYCHQSSRLPHTFGQGTKVEIK
Regarding B3, in assay [1], the dissociation constant (Kd) amounted to 0.0228 nM, the koff is 1e-06 s⁻¹ and the kon is 43900 M⁻¹ s⁻¹. Further, in assay [2], the dissociation constant Kd is 0.00746 nM, the koff stood at 1e-06 s⁻¹ and the kon was 134000 M⁻¹ s⁻¹.

B4: VRDN-02543 (antibody, V domains shown)
VH: EVQLVQSGGGLVKPGGSLRLSCAASGFTFSSFAMHWVRQAPGKGLEWISVIDTRGATYYADSVKGRFTISRDNAKNSLYLQMNSLRAEDTAVYYCARLGNFYYGMDVWGQGTTVTVSS
VL: EIVLTQSPGTLSVSPGERATLSCRASQSIGSSLHWYQQKPGQAPRLLIKYASQHLSGIPDRFSGSGSGTDFTLTISRLEPEDFAVYYCHQSSRLPHTFGQGTKVEIK
With B4, in assay [1], the Kd turned out to be 0.025 nM, the koff amounted to 1e-06 s⁻¹ and the kon stood at 40000 M⁻¹ s⁻¹. Besides, in assay [2], the Kd is 0.391 nM, the koff stood at 4.38e-05 s⁻¹ and the kon amounted to 112000 M⁻¹ s⁻¹.

B5: VRDN-02541 (antibody, V domains shown)
VH: EVQLVQSGGGLVKPGGSLRLSCAASGFTFSSFAMHWVRQAPGKGLEWISVIDTRGATYYADSVKGRFTISRDNAKNSLYLQMNSLRAEDTAVYYCARLGNFYYGMDVWGQGTTVTVSS
VL: EIVLTQSPGTLSVSPGERATLSCRASQSIGSSLHWYQQKPGQAPRLLIKYAHQSLSGIPDRFSGSGSGTDFTLTISRLEPEDFAVYYCHQSSRLPHTFGQGTKVEIK
For B5, in assay [1], the Kd amounted to 0.028 nM, the koff was determined as 1e-06 s⁻¹ and the kon stood at 35700 M⁻¹ s⁻¹. Besides, in assay [2], the Kd worked out at 0.00654 nM, the koff stood at 1e-06 s⁻¹ and the kon was 153000 M⁻¹ s⁻¹.

B6: VRDN-02542 (antibody, V domains shown)
VH: EVQLVQSGGGLVKPGGSLRLSCAASGFTFSSFAMHWVRQAPGKGLEWISVIDTRGATYYADSVKGRFTISRDNAKNSLYLQMNSLRAEDTAVYYCARLGNFYYGMDVWGQGTTVTVSS
VL: EIVLTQSPGTLSVSPGERATLSCRASQSIGSSLHWYQQKPGQAPRLLIKYASHSLSGIPDRFSGSGSGTDFTLTISRLEPEDFAVYYCHQSSRLPHTFGQGTKVEIK
Consider B6, for which, in assay [1], the Kd was determined as 0.0389 nM, the koff came out at 1e-06 s⁻¹ and the kon was found to be 25700 M⁻¹ s⁻¹. Further, in assay [2], the Kd is 0.00535 nM, the koff was 1e-06 s⁻¹ and the kon worked out at 187000 M⁻¹ s⁻¹.

B7: VRDN-02537 (antibody, V domains shown)
VH: EVQLVQSGGGLVKPGGSLRLSCAASGFTFSSFAMHWVRQAPGKGLEWISVIDTRGATYYADSVKGRFTISRDNAKNSLYLQMNSLRAEDTAVYYCARLGNFYYGMDVWGQGTTVTVSS
VL: EIVLTQSPGTLSVSPGERATLSCRASQSIGSSHHWYQQKPGQAPRLLIKYASQSLSGIPDRFSGSGSGTDFTLTISRLEPEDFAVYYCHQSSRLPHTFGQGTKVEIK
As to B7, in assay [1], the Kd turned out to be 0.036 nM, the koff turned out to be 1e-06 s⁻¹ and the kon is 27800 M⁻¹ s⁻¹. For the same molecule, in assay [2], the Kd came to 0.802 nM, the off-rate constant (koff) is 7.16e-05 s⁻¹ and the association rate constant (kon) is 89300 M⁻¹ s⁻¹.

B8: VRDN-02503 (antibody, V domains shown)
VH: EVQLVQSGGGLVKPGGSLRLSCAASGFHFSSFAMHWVRQAPGKGLEWISVIDTRGATYYADSVKGRFTISRDNAKNSLYLQMNSLRAEDTAVYYCARLGNFYYGMDVWGQGTTVTVSS
VL: EIVLTQSPGTLSVSPGERATLSCRASQSIGSSLHWYQQKPGQAPRLLIKYASQSLSGIPDRFSGSGSGTDFTLTISRLEPEDFAVYYCHQSSRLPHTFGQGTKVEIK
With B8, in assay [1], the Kd stood at 0.0262 nM, the koff was found to be 1e-06 s⁻¹ and the on-rate constant (kon) was 38100 M⁻¹ s⁻¹. Also, in assay [2], the Kd is 1.53 nM, the koff came to 0.000161 s⁻¹ and the kon is 105000 M⁻¹ s⁻¹.

B9: VRDN-02532 (antibody, V domains shown)
VH: EVQLVQSGGGLVKPGGSLRLSCAASGFTFSSFAMHWVRQAPGKGLEWISVIDTRGATYYADSVKGRFTISRDNAKNSLYLQMNSLRAEDTAVYYCARLGNFYYGMDVWGQGTTVTVSS
VL: EIVLTQSPGTLSVSPGERATLSCRASQHIGSSLHWYQQKPGQAPRLLIKYASQSLSGIPDRFSGSGSGTDFTLTISRLEPEDFAVYYCHQSSRLPHTFGQGTKVEIK
For B9, in assay [1], the Kd stood at 0.0292 nM, the koff is 1e-06 s⁻¹ and the kon was found to be 34300 M⁻¹ s⁻¹. In assay [2], the Kd stood at 0.316 nM, the koff stood at 4.08e-05 s⁻¹ and the association rate constant (kon) worked out at 129000 M⁻¹ s⁻¹.

B10: VRDN-02535 (antibody, V domains shown)
VH: EVQLVQSGGGLVKPGGSLRLSCAASGFTFSSFAMHWVRQAPGKGLEWISVIDTRGATYYADSVKGRFTISRDNAKNSLYLQMNSLRAEDTAVYYCARLGNFYYGMDVWGQGTTVTVSS
VL: EIVLTQSPGTLSVSPGERATLSCRASQSIGHSLHWYQQKPGQAPRLLIKYASQSLSGIPDRFSGSGSGTDFTLTISRLEPEDFAVYYCHQSSRLPHTFGQGTKVEIK
As for B10, in assay [1], the Kd is 0.0273 nM, the koff was determined as 1e-06 s⁻¹ and the kon came to 36600 M⁻¹ s⁻¹. In addition, in assay [2], the Kd amounted to 0.363 nM, the koff came out at 4.07e-05 s⁻¹ and the kon is 112000 M⁻¹ s⁻¹.

B11: VRDN-02531 (antibody, V domains shown)
VH: EVQLVQSGGGLVKPGGSLRLSCAASGFTFSSFAMHWVRQAPGKGLEWISVIDTRGATYYADSVKGRFTISRDNAKNSLYLQMNSLRAEDTAVYYCARLGNFYYGMDVWGQGTTVTVSS
VL: EIVLTQSPGTLSVSPGERATLSCRASHSIGSSLHWYQQKPGQAPRLLIKYASQSLSGIPDRFSGSGSGTDFTLTISRLEPEDFAVYYCHQSSRLPHTFGQGTKVEIK
With B11, in assay [1], the Kd was 0.0319 nM, the koff came to 1e-06 s⁻¹ and the kon was determined as 31300 M⁻¹ s⁻¹. In assay [2], the dissociation constant Kd amounted to 0.85 nM, the koff was found to be 2.1e-05 s⁻¹ and the kon stood at 24700 M⁻¹ s⁻¹.

B12: VRDN-02540 (antibody, V domains shown)
VH: EVQLVQSGGGLVKPGGSLRLSCAASGFTFSSFAMHWVRQAPGKGLEWISVIDTRGATYYADSVKGRFTISRDNAKNSLYLQMNSLRAEDTAVYYCARLGNFYYGMDVWGQGTTVTVSS
VL: EIVLTQSPGTLSVSPGERATLSCRASQSIGSSLHWYQQKPGQAPRLLIKYHSQSLSGIPDRFSGSGSGTDFTLTISRLEPEDFAVYYCHQSSRLPHTFGQGTKVEIK
As to B12, in assay [1], the Kd is 0.0662 nM, the off-rate (koff) is 1e-06 s⁻¹ and the kon was determined as 15100 M⁻¹ s⁻¹. In assay [2], the Kd was 0.434 nM, the koff turned out to be 4.25e-05 s⁻¹ and the kon came out at 97900 M⁻¹ s⁻¹.

B13: VRDN-02533 (antibody, V domains shown)
VH: EVQLVQSGGGLVKPGGSLRLSCAASGFTFSSFAMHWVRQAPGKGLEWISVIDTRGATYYADSVKGRFTISRDNAKNSLYLQMNSLRAEDTAVYYCARLGNFYYGMDVWGQGTTVTVSS
VL: EIVLTQSPGTLSVSPGERATLSCRASQSHGSSLHWYQQKPGQAPRLLIKYASQSLSGIPDRFSGSGSGTDFTLTISRLEPEDFAVYYCHQSSRLPHTFGQGTKVEIK
Turning to B13, in assay [1], the Kd is 0.0493 nM, the koff came out at 1e-06 s⁻¹ and the kon was found to be 20300 M⁻¹ s⁻¹. In addition, in assay [2], the dissociation constant (Kd) was 0.519 nM, the koff was determined as 4.45e-05 s⁻¹ and the kon is 85700 M⁻¹ s⁻¹.

B14: VRDN-02534 (antibody, V domains shown)
VH: EVQLVQSGGGLVKPGGSLRLSCAASGFTFSSFAMHWVRQAPGKGLEWISVIDTRGATYYADSVKGRFTISRDNAKNSLYLQMNSLRAEDTAVYYCARLGNFYYGMDVWGQGTTVTVSS
VL: EIVLTQSPGTLSVSPGERATLSCRASQSIHSSLHWYQQKPGQAPRLLIKYASQSLSGIPDRFSGSGSGTDFTLTISRLEPEDFAVYYCHQSSRLPHTFGQGTKVEIK
For the molecule B14, in assay [1], the Kd was 0.0393 nM, the koff is 1.17e-06 s⁻¹ and the kon was 29800 M⁻¹ s⁻¹. In addition, in assay [2], the Kd turned out to be 0.0051 nM, the koff was 1e-06 s⁻¹ and the kon was determined as 196000 M⁻¹ s⁻¹.

B15: VRDN-02504 (antibody, V domains shown)
VH: EVQLVQSGGGLVKPGGSLRLSCAASGFTHSSFAMHWVRQAPGKGLEWISVIDTRGATYYADSVKGRFTISRDNAKNSLYLQMNSLRAEDTAVYYCARLGNFYYGMDVWGQGTTVTVSS
VL: EIVLTQSPGTLSVSPGERATLSCRASQSIGSSLHWYQQKPGQAPRLLIKYASQSLSGIPDRFSGSGSGTDFTLTISRLEPEDFAVYYCHQSSRLPHTFGQGTKVEIK
Consider B15, for which, in assay [1], the Kd was 0.0242 nM, the koff came to 1e-06 s⁻¹ and the kon is 41300 M⁻¹ s⁻¹. Further, in assay [2], the Kd turned out to be 5.08 nM, the koff came to 0.000186 s⁻¹ and the kon stood at 36600 M⁻¹ s⁻¹.
